According to US20160017295A1:

Assays:
Test in all cases: cell-based or functional assay
[1] = biological target: variant γ4.3 (AAV2 capsid with N312K, N449D, N551S, I698V) (AAV2 (adeno-associated virus type 2)) (UniProt P03135)
[2] = biological target: wild-type AAV2 capsid (recombinant AAV-GFP vector) (AAV2 (adeno-associated virus type 2)) (UniProt P03135)
[3] = biological target: wild-type AAV8 capsid (recombinant AAV-GFP vector) (AAV8 (adeno-associated virus type 8))
[4] = biological target: Variant 1.45 (AAV2 capsid with N312K, N449D) (AAV2 (adeno-associated virus type 2)) (UniProt P03135)
[5] = biological target: wild-type AAV1 capsid (recombinant AAV-GFP vector) (AAV1 (adeno-associated virus type 1))
[6] = biological target: SM 10-8 variant AAV capsid (Adeno-associated virus 2 (isolate Srivastava/1982) (AAV-2)) (UniProt P03135)
[7] = biological target: SM 100-10 variant AAV capsid (Adeno-associated virus 2 (isolate Srivastava/1982) (AAV-2)) (UniProt P03135)
[8] = biological target: SM 10-2 variant AAV capsid (Adeno-associated virus 2 (isolate Srivastava/1982) (AAV-2)) (UniProt P03135)
[9] = biological target: SM 100-3 variant AAV capsid (Adeno-associated virus 2 (isolate Srivastava/1982) (AAV-2)) (UniProt P03135)

## human IVIG (Gamimune N, 10% Human IVIG, Bayer)
[1]
  enhanced resistance to IVIg compared to wild-type AAV2: 3.1 fold
[2]
  Fold Resistance Relative to AAV2: 1 fold
  Neutralizing IVIG concentration mg/ml (reduces gene delivery efficiency to 50%): 0.015 mg/mL
[3]
  Fold Resistance Relative to AAV2: 6.11 fold
  Neutralizing IVIG concentration mg/ml (reduces gene delivery efficiency to 50%): 0.092 mg/mL
[4]
  enhanced resistance to IVIg compared to wild-type AAV2: 1.23 fold
[5]
  Fold Resistance Relative to AAV2: 1.76 fold
  Neutralizing IVIG concentration mg/ml (reduces gene delivery efficiency to 50%): 0.026 mg/mL
[6]
  Fold Resistance Relative to AAV2: 3.41 fold
  Neutralizing IVIG concentration mg/ml (reduces gene delivery efficiency to 50%): 0.051 mg/mL
[7]
  Fold Resistance Relative to AAV2: 4.39 fold
  Neutralizing IVIG concentration mg/ml (reduces gene delivery efficiency to 50%): 0.066 mg/mL
[8]
  Fold Resistance Relative to AAV2: 7.52 fold
  Neutralizing IVIG concentration mg/ml (reduces gene delivery efficiency to 50%): 0.113 mg/mL
[9]
  Fold Resistance Relative to AAV2: 4.94 fold
  Neutralizing IVIG concentration mg/ml (reduces gene delivery efficiency to 50%): 0.074 mg/mL
